Experimental data from the supplement of paper PMC10065799, “High-throughput profiling of sequence recognition by tyrosine kinases and SH2 domains using bacterial peptide display” (eLife, 2023).
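Further: 11-residue human phosphosite peptides and single-mutation variants displayed on the E. coli surface, counted by deep sequencing, each peptide's frequency after selection divided by its frequency in the unselected input library; frequency after pTyr selection over input frequency; kinase dosed for 20-30% of maximal phosphorylation in three min.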

Each sequence was assayed against Hck (UniProt P08631) (assay: phosphorylation enrichment, bacterial display (enrichment ratio); higher = better substrate or ligand; peptides without Tyr show the background).
Chain of Hck (P08631 whole entry, looked up): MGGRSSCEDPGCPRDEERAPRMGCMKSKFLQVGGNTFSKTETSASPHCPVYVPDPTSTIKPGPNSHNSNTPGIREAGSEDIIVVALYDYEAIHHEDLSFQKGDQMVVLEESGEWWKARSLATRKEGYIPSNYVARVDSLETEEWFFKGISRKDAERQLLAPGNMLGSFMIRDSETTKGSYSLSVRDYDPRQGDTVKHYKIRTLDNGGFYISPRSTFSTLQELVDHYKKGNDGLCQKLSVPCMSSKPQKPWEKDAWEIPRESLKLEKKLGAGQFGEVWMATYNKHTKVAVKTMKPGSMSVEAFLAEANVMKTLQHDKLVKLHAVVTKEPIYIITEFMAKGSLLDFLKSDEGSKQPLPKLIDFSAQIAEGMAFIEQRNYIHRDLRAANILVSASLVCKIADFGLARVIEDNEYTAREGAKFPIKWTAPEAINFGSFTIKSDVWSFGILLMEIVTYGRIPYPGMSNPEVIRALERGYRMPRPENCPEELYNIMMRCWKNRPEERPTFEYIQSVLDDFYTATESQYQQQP
AESPEHVHMFT [FAM111A_Y511_Y511H_YF] showed a phosphorylation enrichment of 0.447. GINDDHGQLKN [NBN_Y679_Y679H] gave a phosphorylation enrichment of 0.484. Sequence QRNEEYCLLDS [ITK_Y198_R193Q] has a phosphorylation enrichment of 0.707. Work on TPIYPYLLPKS [PLD2_Y580_T577I] yielded a phosphorylation enrichment of 0.547. RAYRHYLLKQK [SCN2A_Y1919_R1918H] showed a phosphorylation enrichment of 0.414. In the case of EFKKHYGFSLF [ANXA3_Y295_YF], the phosphorylation enrichment is reported as 0.507. For PLQNTYNYNVL [SLC4A1_Y553_K551N], the phosphorylation enrichment was 0.6. NFCPGYNNFFN [USH2A_Y467_R464C_YF] showed a phosphorylation enrichment of 0.426. FRNSLYAPDFS [FAM92A_Y226_YF] gave a phosphorylation enrichment of 1.23. KDQGGYTMHQD [MAPT_Y29] was tested, and the phosphorylation enrichment was 0.484. KSSDVYVSYDC [SORL1_Y136_Y141C] showed a phosphorylation enrichment of 1.87. FSKDIYKRVTG [PANK2_Y405_N404I_YF] showed a phosphorylation enrichment of 0.423. Sequence AEEPIYIIVPA [BMXtide_2014] has a phosphorylation enrichment of 7.96. FCGFSYDDIPD [TMEM230_Y112_R108C_YF] gave a phosphorylation enrichment of 0.63. For FQLPFYNMVPS [BMPR1A_Y458_YF], the phosphorylation enrichment was 1.07. With FETSHYLASPD [CTNND2_Y1217_P1218L_YF] the phosphorylation enrichment was 0.513. Sequence VKYGAYINDFK [GLB1_Y488_N484K] has a phosphorylation enrichment of 0.379. In the case of SLEKSYKLPDG [ACTA1_Y242_E243K], the phosphorylation enrichment is reported as 0.393. With LKYAIYFEARE [LAMA2_Y1258] the phosphorylation enrichment was 1.67. DVELLYPVKEK [EPHX1_Y283] gave a phosphorylation enrichment of 0.422. Work on AFEQQYSPIPK [NOX1_Y373_R378K] yielded a phosphorylation enrichment of 3.14. Sequence IFRAAYFGVFD [SLC25A4_Y191_YF] has a phosphorylation enrichment of 0.457. Sequence RRNEIYEIKVD [LGR5_Y387_H383R] has a phosphorylation enrichment of 5.36. In the case of LSVEIHDRREY [ITGB7_Y753_Y753H], the phosphorylation enrichment is reported as 0.463. RNFVRYVQGLK [VWF_Y1400] showed a phosphorylation enrichment of 0.339. For SHLSAYPALEG [CD5_Y465], the phosphorylation enrichment was 0.372. LLRLAYLADIF [ZBED5_Y476] was tested, and the phosphorylation enrichment was 0.54. Sequence SVVVPYGPPEV [TP53_Y220_E221G] has a phosphorylation enrichment of 0.41. CTTIHYTYMCN [TP53_Y234_N235T] was tested, and the phosphorylation enrichment was 0.524.

What follows are sequences tested against Jak2 (UniProt O60674) in the same assay as above.
Chain of Jak2 (O60674 whole entry, looked up): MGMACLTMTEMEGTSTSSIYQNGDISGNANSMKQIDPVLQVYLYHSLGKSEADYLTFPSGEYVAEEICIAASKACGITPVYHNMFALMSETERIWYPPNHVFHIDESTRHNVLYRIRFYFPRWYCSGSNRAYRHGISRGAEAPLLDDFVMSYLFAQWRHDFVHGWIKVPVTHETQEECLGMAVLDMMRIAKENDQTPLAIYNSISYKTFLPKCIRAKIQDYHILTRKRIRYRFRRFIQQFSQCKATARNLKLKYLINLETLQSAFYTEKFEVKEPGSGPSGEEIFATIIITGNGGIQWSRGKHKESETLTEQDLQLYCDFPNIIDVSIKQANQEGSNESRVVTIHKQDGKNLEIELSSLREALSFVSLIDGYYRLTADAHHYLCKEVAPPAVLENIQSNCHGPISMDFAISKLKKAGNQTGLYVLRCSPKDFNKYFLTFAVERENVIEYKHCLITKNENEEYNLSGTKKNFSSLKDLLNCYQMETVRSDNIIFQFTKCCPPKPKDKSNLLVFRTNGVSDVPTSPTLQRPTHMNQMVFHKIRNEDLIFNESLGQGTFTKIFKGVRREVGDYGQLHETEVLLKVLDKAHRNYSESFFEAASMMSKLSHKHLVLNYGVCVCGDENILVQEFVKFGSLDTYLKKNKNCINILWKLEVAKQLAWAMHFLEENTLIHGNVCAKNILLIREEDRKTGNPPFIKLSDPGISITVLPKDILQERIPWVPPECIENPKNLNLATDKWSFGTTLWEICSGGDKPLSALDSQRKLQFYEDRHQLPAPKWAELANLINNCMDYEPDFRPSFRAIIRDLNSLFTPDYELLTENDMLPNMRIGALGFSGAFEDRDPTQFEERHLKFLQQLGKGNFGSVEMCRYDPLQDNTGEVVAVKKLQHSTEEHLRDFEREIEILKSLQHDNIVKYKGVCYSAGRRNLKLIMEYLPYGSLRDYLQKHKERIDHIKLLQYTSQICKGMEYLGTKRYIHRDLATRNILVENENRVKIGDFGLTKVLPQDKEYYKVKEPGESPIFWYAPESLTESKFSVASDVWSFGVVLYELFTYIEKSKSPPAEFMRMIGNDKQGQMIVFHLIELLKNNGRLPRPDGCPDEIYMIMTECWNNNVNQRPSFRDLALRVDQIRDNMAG
Work on AESPEHVHMFT [FAM111A_Y511_Y511H_YF] yielded a phosphorylation enrichment of 0.754. Sequence GINDDHGQLKN [NBN_Y679_Y679H] has a phosphorylation enrichment of 0.591. For QRNEEYCLLDS [ITK_Y198_R193Q], the phosphorylation enrichment was 1.85. With TPIYPYLLPKS [PLD2_Y580_T577I] the phosphorylation enrichment was 1.59. RAYRHYLLKQK [SCN2A_Y1919_R1918H] was tested, and the phosphorylation enrichment was 0.47. For EFKKHYGFSLF [ANXA3_Y295_YF], the phosphorylation enrichment was 0.751. PLQNTYNYNVL [SLC4A1_Y553_K551N] gave a phosphorylation enrichment of 0.67. For NFCPGYNNFFN [USH2A_Y467_R464C_YF], the phosphorylation enrichment was 0.775. FRNSLYAPDFS [FAM92A_Y226_YF] showed a phosphorylation enrichment of 0.812. KDQGGYTMHQD [MAPT_Y29] gave a phosphorylation enrichment of 0.542. KSSDVYVSYDC [SORL1_Y136_Y141C] showed a phosphorylation enrichment of 0.934. FSKDIYKRVTG [PANK2_Y405_N404I_YF] gave a phosphorylation enrichment of 0.407. For AEEPIYIIVPA [BMXtide_2014], the phosphorylation enrichment was 2.47. Sequence FCGFSYDDIPD [TMEM230_Y112_R108C_YF] has a phosphorylation enrichment of 1.22. With FQLPFYNMVPS [BMPR1A_Y458_YF] the phosphorylation enrichment was 0.666. Sequence FETSHYLASPD [CTNND2_Y1217_P1218L_YF] has a phosphorylation enrichment of 0.73. VKYGAYINDFK [GLB1_Y488_N484K] showed a phosphorylation enrichment of 0.573. SLEKSYKLPDG [ACTA1_Y242_E243K] was tested, and the phosphorylation enrichment was 0.649. LKYAIYFEARE [LAMA2_Y1258] gave a phosphorylation enrichment of 3.01. DVELLYPVKEK [EPHX1_Y283] was tested, and the phosphorylation enrichment was 0.971. AFEQQYSPIPK [NOX1_Y373_R378K] gave a phosphorylation enrichment of 0.534. IFRAAYFGVFD [SLC25A4_Y191_YF] gave a phosphorylation enrichment of 0.891. Work on RRNEIYEIKVD [LGR5_Y387_H383R] yielded a phosphorylation enrichment of 0.669. In the case of LSVEIHDRREY [ITGB7_Y753_Y753H], the phosphorylation enrichment is reported as 1.12. Work on RNFVRYVQGLK [VWF_Y1400] yielded a phosphorylation enrichment of 0.556. In the case of SHLSAYPALEG [CD5_Y465], the phosphorylation enrichment is reported as 0.483. LLRLAYLADIF [ZBED5_Y476] showed a phosphorylation enrichment of 0.99. For SVVVPYGPPEV [TP53_Y220_E221G], the phosphorylation enrichment was 0.689. CTTIHYTYMCN [TP53_Y234_N235T] showed a phosphorylation enrichment of 1.04.

What follows are sequences tested against MERTK (UniProt Q12866) in the same assay as above.
Chain of MERTK (Q12866 whole entry, looked up): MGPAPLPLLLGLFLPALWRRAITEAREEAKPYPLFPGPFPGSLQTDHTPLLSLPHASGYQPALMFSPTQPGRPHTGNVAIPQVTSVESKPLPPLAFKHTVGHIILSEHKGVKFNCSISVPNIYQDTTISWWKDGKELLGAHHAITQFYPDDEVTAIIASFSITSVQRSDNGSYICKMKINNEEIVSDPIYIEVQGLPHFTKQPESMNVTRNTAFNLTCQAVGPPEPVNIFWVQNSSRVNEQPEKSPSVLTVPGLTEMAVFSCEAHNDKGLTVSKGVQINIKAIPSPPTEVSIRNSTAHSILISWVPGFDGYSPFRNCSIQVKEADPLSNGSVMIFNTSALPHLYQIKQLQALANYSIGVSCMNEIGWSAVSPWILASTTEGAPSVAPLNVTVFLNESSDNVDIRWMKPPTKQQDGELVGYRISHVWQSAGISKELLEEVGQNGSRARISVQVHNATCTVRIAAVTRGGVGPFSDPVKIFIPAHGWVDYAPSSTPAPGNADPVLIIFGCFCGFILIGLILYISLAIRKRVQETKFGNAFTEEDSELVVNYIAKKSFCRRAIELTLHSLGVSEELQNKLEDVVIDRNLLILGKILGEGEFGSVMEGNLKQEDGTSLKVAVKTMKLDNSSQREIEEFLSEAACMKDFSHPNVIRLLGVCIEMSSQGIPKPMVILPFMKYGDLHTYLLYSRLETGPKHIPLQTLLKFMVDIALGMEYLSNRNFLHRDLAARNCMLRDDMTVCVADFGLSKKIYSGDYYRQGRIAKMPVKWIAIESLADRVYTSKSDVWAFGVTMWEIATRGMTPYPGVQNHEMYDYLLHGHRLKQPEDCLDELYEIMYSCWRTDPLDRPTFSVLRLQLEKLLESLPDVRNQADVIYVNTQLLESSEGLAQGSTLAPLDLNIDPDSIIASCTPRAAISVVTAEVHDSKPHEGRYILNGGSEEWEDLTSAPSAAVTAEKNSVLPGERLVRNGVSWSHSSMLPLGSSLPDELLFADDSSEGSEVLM
Sequence AESPEHVHMFT [FAM111A_Y511_Y511H_YF] has a phosphorylation enrichment of 0.416. Sequence GINDDHGQLKN [NBN_Y679_Y679H] has a phosphorylation enrichment of 0.473. In the case of QRNEEYCLLDS [ITK_Y198_R193Q], the phosphorylation enrichment is reported as 0.861. Work on TPIYPYLLPKS [PLD2_Y580_T577I] yielded a phosphorylation enrichment of 1.8. Sequence RAYRHYLLKQK [SCN2A_Y1919_R1918H] has a phosphorylation enrichment of 0.571. Sequence EFKKHYGFSLF [ANXA3_Y295_YF] has a phosphorylation enrichment of 0.416. In the case of PLQNTYNYNVL [SLC4A1_Y553_K551N], the phosphorylation enrichment is reported as 0.737. In the case of NFCPGYNNFFN [USH2A_Y467_R464C_YF], the phosphorylation enrichment is reported as 0.458. With FRNSLYAPDFS [FAM92A_Y226_YF] the phosphorylation enrichment was 8.67. In the case of KDQGGYTMHQD [MAPT_Y29], the phosphorylation enrichment is reported as 0.413. Work on KSSDVYVSYDC [SORL1_Y136_Y141C] yielded a phosphorylation enrichment of 0.611. FSKDIYKRVTG [PANK2_Y405_N404I_YF] showed a phosphorylation enrichment of 0.334. AEEPIYIIVPA [BMXtide_2014] showed a phosphorylation enrichment of 9.02. Work on FCGFSYDDIPD [TMEM230_Y112_R108C_YF] yielded a phosphorylation enrichment of 0.558. FQLPFYNMVPS [BMPR1A_Y458_YF] gave a phosphorylation enrichment of 2.69. FETSHYLASPD [CTNND2_Y1217_P1218L_YF] showed a phosphorylation enrichment of 0.664. With VKYGAYINDFK [GLB1_Y488_N484K] the phosphorylation enrichment was 0.381. For SLEKSYKLPDG [ACTA1_Y242_E243K], the phosphorylation enrichment was 0.462. LKYAIYFEARE [LAMA2_Y1258] gave a phosphorylation enrichment of 0.907. DVELLYPVKEK [EPHX1_Y283] was tested, and the phosphorylation enrichment was 0.36. In the case of AFEQQYSPIPK [NOX1_Y373_R378K], the phosphorylation enrichment is reported as 0.874. IFRAAYFGVFD [SLC25A4_Y191_YF] gave a phosphorylation enrichment of 0.447. RRNEIYEIKVD [LGR5_Y387_H383R] was tested, and the phosphorylation enrichment was 0.468. In the case of LSVEIHDRREY [ITGB7_Y753_Y753H], the phosphorylation enrichment is reported as 0.336. In the case of RNFVRYVQGLK [VWF_Y1400], the phosphorylation enrichment is reported as 0.48. SHLSAYPALEG [CD5_Y465] showed a phosphorylation enrichment of 0.324. In the case of LLRLAYLADIF [ZBED5_Y476], the phosphorylation enrichment is reported as 0.432. Sequence SVVVPYGPPEV [TP53_Y220_E221G] has a phosphorylation enrichment of 0.476. With CTTIHYTYMCN [TP53_Y234_N235T] the phosphorylation enrichment was 0.517.

Each sequence was assayed on c-Abl (mouse) in the same assay as above.
AESPEHVHMFT [FAM111A_Y511_Y511H_YF] was tested, and the phosphorylation enrichment was 0.661. For GINDDHGQLKN [NBN_Y679_Y679H], the phosphorylation enrichment was 0.524. Work on QRNEEYCLLDS [ITK_Y198_R193Q] yielded a phosphorylation enrichment of 1.67. Work on TPIYPYLLPKS [PLD2_Y580_T577I] yielded a phosphorylation enrichment of 0.65. In the case of RAYRHYLLKQK [SCN2A_Y1919_R1918H], the phosphorylation enrichment is reported as 0.376. EFKKHYGFSLF [ANXA3_Y295_YF] gave a phosphorylation enrichment of 0.642. Sequence PLQNTYNYNVL [SLC4A1_Y553_K551N] has a phosphorylation enrichment of 1.51. In the case of NFCPGYNNFFN [USH2A_Y467_R464C_YF], the phosphorylation enrichment is reported as 0.577. Work on FRNSLYAPDFS [FAM92A_Y226_YF] yielded a phosphorylation enrichment of 0.563. In the case of KDQGGYTMHQD [MAPT_Y29], the phosphorylation enrichment is reported as 0.569. KSSDVYVSYDC [SORL1_Y136_Y141C] was tested, and the phosphorylation enrichment was 0.772. FSKDIYKRVTG [PANK2_Y405_N404I_YF] showed a phosphorylation enrichment of 0.529. Sequence AEEPIYIIVPA [BMXtide_2014] has a phosphorylation enrichment of 8.02. In the case of FCGFSYDDIPD [TMEM230_Y112_R108C_YF], the phosphorylation enrichment is reported as 1.02. Work on FQLPFYNMVPS [BMPR1A_Y458_YF] yielded a phosphorylation enrichment of 0.582. For FETSHYLASPD [CTNND2_Y1217_P1218L_YF], the phosphorylation enrichment was 0.658. Work on VKYGAYINDFK [GLB1_Y488_N484K] yielded a phosphorylation enrichment of 0.605. SLEKSYKLPDG [ACTA1_Y242_E243K] gave a phosphorylation enrichment of 0.574. LKYAIYFEARE [LAMA2_Y1258] gave a phosphorylation enrichment of 1.94. DVELLYPVKEK [EPHX1_Y283] gave a phosphorylation enrichment of 0.648. In the case of AFEQQYSPIPK [NOX1_Y373_R378K], the phosphorylation enrichment is reported as 0.612. Work on IFRAAYFGVFD [SLC25A4_Y191_YF] yielded a phosphorylation enrichment of 0.761. In the case of RRNEIYEIKVD [LGR5_Y387_H383R], the phosphorylation enrichment is reported as 0.574. For LSVEIHDRREY [ITGB7_Y753_Y753H], the phosphorylation enrichment was 0.823. RNFVRYVQGLK [VWF_Y1400] was tested, and the phosphorylation enrichment was 0.548. SHLSAYPALEG [CD5_Y465] gave a phosphorylation enrichment of 0.531. For LLRLAYLADIF [ZBED5_Y476], the phosphorylation enrichment was 0.765. SVVVPYGPPEV [TP53_Y220_E221G] showed a phosphorylation enrichment of 0.601. CTTIHYTYMCN [TP53_Y234_N235T] was tested, and the phosphorylation enrichment was 0.672.
